Test results from patent publication US12178803B2, “CD47 blockade with PARP inhibition for disease treatment” (TRILLIUM THERAPEUTICS ULC, priority 2018, dated 2024).

Experiment: Systemic toxicity by clinical parameter scoring in the xenograft study
Assay type: in vivo
Conditions: SIRPαFc added to niraparib and/or RT
Method: Niraparib (50 mg/kg) was administered 1 hour prior to RT, 5 times per week for 1 week. Mice were treated with whole abdomen radiotherapy (external beam radiation therapy) at a dose of 2 Gy for 2 fractions using an image-guided small animal irradiator (225 kVp, 13 mA). Treatment was initiated on day 7 following tumor inoculation. Treatment efficacy was assessed by bioluminescent imaging (BLI) and animal survival. Systemic toxicity was evaluated by clinical parameter scoring.

SIRPαFc: CD47 blocking fusion protein: IgV domain of human SIRPα V2 fused to a human IgG Fc region; preferred SEQ ID NO:8
additional toxicity when combined with PARPi (niraparib) and/or RT: without showing additional toxicity
